Test results: patent CN101627111A (CENTOCOR INC, dated 2010)

Biological target: human tissue factor on HCT 116 human colon carcinoma cells (human, UniProt P13726 33-295)
Test: cell-based or functional assay

B1: CNTO 860 produced in YB2/0-derived host cell line C1083B (antibody, human IgG1, kappa, V domains shown)
VH: QVQLVESGGGVVQPGRSLRLSCKASGFNIKDYYMHWVRQAPGKGLEWIGLIDPENGNTIYDPKFQGRFTISADNSKNTLFLQMDSLRPEDTAVYYCARDNSYYFDYWGQGTPVTVSS
VL: DIQMTQSPSSLSASVGDRVTITCKASQDIRKYLNWYQQKPGKAPKLLIYYATSLADGVPSRFSGSGSGTDYTFTISSLQPEDIATYYCLQHGESPYTFGQGTKLEITR
modifications: Fc N-glycan about 40% fucosylated
- ADCC potency (EC50 and maximal lysis) against C463-derived CNTO 860: 20 to 60 倍
